# Laboratory results published in patent US20240190986A1 (ZHEJIANG NANOMAB TECHNOLOGY CENTER, published 2024).
# B1: M2339-z11-1 (antibody, IgG4, V domains shown)
# VH: EVQLVASGGGLVQPGGSLRLSCALSGFTLRELDEFAIGWFRQAPGKEREGVSCISGTGGITHYADSVKGRFTISRDNSKTTVYLQMNSLRAEDTAVYYCAADERCTDRLIRPPTYWGQGTQVTVSS
# notes: Humanized variant of M2339
# B2: M2339-z11-10 (antibody, IgG4, V domains shown)
# VH: QLQLVESGGGLVQPGGSLRLSCALSGFTLRELDEFAIGWFRQAPGKEREGVSCISGTGGITHYADSVKGRFTISRDIAKTTVYLQMNSLNSEDTAVYYCAADERCTDRLIRPPTYWGQGTQVTVSS
# notes: Humanized variant of M2339
# B3: M2339-z11-2 (antibody, IgG4, V domains shown)
# VH: QVQLVASGGGLVQPGGSLRLSCALSGFTLRELDEFAIGWFRQAPGKEREGVSCISGTGGITHYADSVKGRFTISRDNSKTTVYLQMNSLRAEDTAVYYCAADERCTDRLIRPPTYWGQGTQVTVSS
# notes: Humanized variant of M2339
# B4: M2339-z11-3 (antibody, IgG4, V domains shown)
# VH: ELQLVASGGGLVQPGGSLRLSCALSGFTLRELDEFAIGWFRQAPGKEREGVSCISGTGGITHYADSVKGRFTISRDNSKTTVYLQMNSLRAEDTAVYYCAADERCTDRLIRPPTYWGQGTQVTVSS
# notes: Humanized variant of M2339
# B5: M2339-z11-11 (antibody, IgG4, V domains shown)
# VH: QLQLGASGGGLVQPGGSLRLSCAASGFTLRELDEFAIGWFRQAPGKEREGVSCISGTGGITHYADSVKGRFTISRDIAKTTVYLQMNSLNSEDTAVYYCAADERCTDRLIRPPTYWGQGTQVTVSS
# notes: Humanized variant of M2339
# B6: M2339-z11-4 (antibody, IgG4, V domains shown)
# VH: EVQLGASGGGLVQPGGSLRLSCALSGFTLRELDEFAIGWFRQAPGKEREGVSCISGTGGITHYADSVKGRFTISRDNSKTTVYLQMNSLRAEDTAVYYCAADERCTDRLIRPPTYWGQGTQVTVSS
# notes: Humanized variant of M2339
# B7: M2339-z11-5 (antibody, IgG4, V domains shown)
# VH: EVQLVASGGGLVQPGGSLRLSCALSGFTLRELDEFAIGWFRQAPGKEREGVSCISGTGGITHYADSVKGRFTISRDNSKTTVYLQMNSLNAEDTAVYYCAADERCTDRLIRPPTYWGQGTQVTVSS
# notes: Humanized variant of M2339
# B8: M2339-z11-6 (antibody, IgG4, V domains shown)
# VH: EVQLVASGGGLVQPGGSLRLSCALSGFTLRELDEFAIGWFRQAPGKEREGVSCISGTGGITHYADSVKGRFTISRDNSKTTVYLQMNSLRSEDTAVYYCAADERCTDRLIRPPTYWGQGTQVTVSS
# notes: Humanized variant of M2339
# B9: M2339-z11-8 (antibody, IgG4, V domains shown)
# VH: QLQLGESGGGLVQPGGSLRLSCALSGFTLRELDEFAIGWFRQAPGKEREGVSCISGTGGITHYADSVKGRFTISRDIAKTTVYLQMNSLNSEDTAVYYCAADERCTDRLIRPPTYWGQGTQVTVSS
# notes: Humanized variant of M2339
# B10: M2339-z11-9 (antibody, IgG4, V domains shown)
# VH: QLQLVASGGGLVQPGGSLRLSCALSGFTLRELDEFAIGWFRQAPGKEREGVSCISGTGGITHYADSVKGRFTISRDIAKTTVYLQMNSLNSEDTAVYYCAADERCTDRLIRPPTYWGQGTQVTVSS
# notes: Humanized variant of M2339
# B11: M2339-z11-7 (antibody, IgG4, V domains shown)
# VH: ELQLGASGGGLVQPGGSLRLSCALSGFTLRELDEFAIGWFRQAPGKEREGVSCISGTGGITHYADSVKGRFTISRDNSKTTVYLQMNSLRAEDTAVYYCAADERCTDRLIRPPTYWGQGTQVTVSS
# notes: Humanized variant of M2339
# Molecular target: T1, MSLN·His protein (human, UniProt Q13421 296-580, limits assumed)
# T1 construct: Bought protein; also called human MSLN·His antigen; not shown: His tag
# T1 sequence (Q13421 other isoform, or with tags, fused parts or gaps limits assumed): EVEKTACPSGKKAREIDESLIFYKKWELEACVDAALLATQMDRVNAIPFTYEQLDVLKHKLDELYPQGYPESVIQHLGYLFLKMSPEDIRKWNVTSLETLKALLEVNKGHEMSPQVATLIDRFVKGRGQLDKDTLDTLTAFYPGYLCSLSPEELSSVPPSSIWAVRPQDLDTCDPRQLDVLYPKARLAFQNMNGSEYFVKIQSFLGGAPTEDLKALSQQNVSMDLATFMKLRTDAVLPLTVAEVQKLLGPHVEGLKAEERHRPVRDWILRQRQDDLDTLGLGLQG
# Test: SPR (Biacore), antibody captured on protein A, MSLN·His as analyte
# From the text: Referring to the method of humanizing nanoantibodies (J. Biol. Chem. 2009; 284: 3273-3284), M2339 was humanized using the method of CDR region transplantation. In IgBLAST (http://www.ncbi.nlm.nih.gov/igblast/), germline with high homology with M2339 was selected as the template in the database. Biacore was used to detect the affinity of the antibody before and after humanization. The purified antibody was flowed through the sensor chip pre-fixed with protein A, and the antibody was captured by protein A. Then five different concentrations of MSLN·His protein were used as the mobile phase, and the association time and dissociation time were 30 min and 60 min, respectively. The binding rate (ka), dissociation rate (kd), and equilibrium constant (kd) were analyzed using Biacore Evaluation Software 2.0 (GE).
Binder,Kd [nM],koff [s⁻¹],kon [M⁻¹ s⁻¹]
B1,59.5,0.00608,102000
B2,0.239,9.81e-06,41000
B3,0.279,1.74e-05,62300
B4,2.78,0.000132,47400
B5,0.274,1.18e-05,43000
B6,14.9,0.00119,80000
B7,37.7,0.00878,233000
B8,47.4,0.00824,174000
B9,0.361,1.6e-05,44300
B10,0.143,1.2e-05,83800
B11,1.3,5.18e-05,39800
